Measured values from article PMC2596940.
Where two headings read alike, the source gives them in different places.

amyloid precursor protein (APP): K587R
other (SUMOylation at K587): increases

amyloid precursor protein (APP): K595R
other (SUMOylation at K595): increases

amyloid precursor protein (APP): K587R/K595R
other (SUMOylation at K587): increases | other (SUMOylation at K595): increases
